Legend:
[1] = target: human CD40 on the cell surface (human) (UniProt P25942); test: flow cytometry on Raji cells, AF647 anti-human IgG detection
[2] = target: human CD40 on the cell surface (human) (UniProt P25942); test: cell-based or functional assay
[3] = target: human CD40 on the cell surface (human) (UniProt P25942); test: flow cytometry on Raji cells, Alexa Fluor 488 anti-human IgG (H+L) detection
[4] = target: his-tagged human CD40 (h-CD40-his) recombinant protein (human) (UniProt P25942); test: SPR (Biacore), antibody captured on anti-human Fc chip, His-tagged CD40 as analyte, 1:1 model
his-tagged human CD40 (h-CD40-his) recombinant protein (human), sequence (P25942 21-193 limits assumed): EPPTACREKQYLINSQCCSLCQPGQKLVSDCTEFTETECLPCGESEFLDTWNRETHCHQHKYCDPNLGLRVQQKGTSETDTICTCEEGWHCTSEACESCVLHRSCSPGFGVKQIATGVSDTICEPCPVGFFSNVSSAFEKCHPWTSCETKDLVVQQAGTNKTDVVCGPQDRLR

human CD40 on the cell surface (human), sequence (P25942 21-277): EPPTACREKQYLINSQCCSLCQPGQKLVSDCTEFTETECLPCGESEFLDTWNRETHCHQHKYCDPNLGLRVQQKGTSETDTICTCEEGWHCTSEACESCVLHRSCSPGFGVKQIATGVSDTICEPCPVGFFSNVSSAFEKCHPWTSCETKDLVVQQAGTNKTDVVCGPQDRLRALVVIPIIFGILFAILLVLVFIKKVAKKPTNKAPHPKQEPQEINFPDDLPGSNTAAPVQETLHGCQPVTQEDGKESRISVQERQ

“anti-CD40 antagonistic antibody CFZ533 (iscalimab)” gave an EC50 [1] of 2.41 nM, a B cell activation assay, CD19+CD69+ % IC50 [2] of 0.14 nM and a B cell activation assay, CD19+CD69+ % Maximum inhibition rate [2] of 95%. It also gave a B cell activation assay, CD19+CD69+ MFI IC50 [2] of 0.07 nM, a B cell activation assay, CD19+CD69+ MFI Maximum inhibition rate [2] of 110% and an IC50 for the inhibition of CD40 reporter gene cell activity (Assay 1) [2] of 0.36 nM. For the same substance, the IC50 for the inhibition of CD40 reporter gene cell activity (Assay 2) [2] was 0.35 nM, the IC50 in DC cell activation assay system, CD80 MFI [2] was 1.19 nM and the IC50 in DC cell activation assay system, CD86 MFI [2] was 1.93 nM. For the same substance, the IC50 in DC cell activation assay system, IL-12/23 p40 [2] was 0.68 nM, the IC50 in DC cell activation assay system, TNFα [2] was 0.35 nM and the reporter gene cell activity IC50 (HEK-Blue CD40L cells, SEAP) [2] was 0.272 nM. It also gave an EC50 [3] of 1.01 nM, a Kd [4] of 0.205 nM and a koff [4] of 0.000141 s⁻¹. For the same substance, the kon [4] was 688000 M⁻¹ s⁻¹.
